Experimental data taken from patent US20250161359A1.

Legend:
[1] = molecular target: PR3_10_56: PR3_10 (H44A) CD33SP SS CD28TM CAAR (human); assay: cell-based or functional assay
[2] = molecular target: PR3_1_30: PR3_1_(WT) CD33SP MS CD28TM CAAR (human); assay: cell-based or functional assay
Chain of PR3_1_30: PR3_1_(WT) CD33SP MS CD28TM CAAR (human) (chain, as listed by the source limits assumed): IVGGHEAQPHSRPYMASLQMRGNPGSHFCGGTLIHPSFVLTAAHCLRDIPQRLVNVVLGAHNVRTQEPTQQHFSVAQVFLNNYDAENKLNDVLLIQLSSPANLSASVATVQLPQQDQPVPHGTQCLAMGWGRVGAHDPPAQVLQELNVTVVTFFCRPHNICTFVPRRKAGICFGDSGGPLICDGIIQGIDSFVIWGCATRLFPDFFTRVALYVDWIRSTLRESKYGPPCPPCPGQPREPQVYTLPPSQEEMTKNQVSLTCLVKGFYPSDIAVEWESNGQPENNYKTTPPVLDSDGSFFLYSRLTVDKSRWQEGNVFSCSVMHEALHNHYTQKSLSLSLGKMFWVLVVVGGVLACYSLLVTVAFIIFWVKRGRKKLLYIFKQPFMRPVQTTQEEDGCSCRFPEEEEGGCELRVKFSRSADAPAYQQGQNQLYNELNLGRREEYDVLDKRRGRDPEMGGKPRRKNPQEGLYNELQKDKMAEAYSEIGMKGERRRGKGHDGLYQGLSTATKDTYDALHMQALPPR

Chain of PR3_10_56: PR3_10 (H44A) CD33SP SS CD28TM CAAR (human) (chain, as listed by the source H44A H44A limits assumed): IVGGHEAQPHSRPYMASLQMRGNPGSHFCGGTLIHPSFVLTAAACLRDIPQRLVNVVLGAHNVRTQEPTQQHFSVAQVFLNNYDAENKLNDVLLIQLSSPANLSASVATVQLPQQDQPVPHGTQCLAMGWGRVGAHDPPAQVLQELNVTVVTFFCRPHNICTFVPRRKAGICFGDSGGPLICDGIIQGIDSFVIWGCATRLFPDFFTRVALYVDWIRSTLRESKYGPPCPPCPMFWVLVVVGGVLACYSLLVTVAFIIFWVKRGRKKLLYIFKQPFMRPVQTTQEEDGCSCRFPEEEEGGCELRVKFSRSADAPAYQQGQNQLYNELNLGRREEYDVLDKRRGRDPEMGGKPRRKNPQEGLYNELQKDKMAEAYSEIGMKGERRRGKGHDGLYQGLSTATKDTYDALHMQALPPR

Substance: anti-PR3 antibody, EMD Millipore, clone MCPR3-3, catalog #MABF973
- CAAR killing efficiency against the lowest density IgG+-CHO-S target (MCPR3-3 #4 (L)) [1]: 65%
- CAAR killing efficiency against the lowest density IgG+-CHO-S target (MCPR3-3 #4 (L)) [2]: 65%
